Data as given in paper PMC11472156, “Synergistic regulation of fusion pore opening and dilation by SNARE and synaptotagmin-1” (Journal of Molecular Cell Biology, 2024).
Residue numbers refer to the chain shown, from its start. Numbers in names are those of the source.

B1: Syt1 C2B domain-containing C2AB fragment, C2AB (A418C), Cy5-labeled (domain or fragment)
chain: KLGKLQYSLDYDFQNNQLLVGIIQAAELPALDMGGTSDPYVKVFLLPDKKKKFETKVHRKTLNPVFNEQFTFKVPYSELGGKTLVMAVYDFDRFSKHDIIGEFKVPMNTVDFGHVTEEWRDLQSAEKEEQEKLGDICFSLRYVPTAGKLTVVILEAKNLKKMDVGGLSDPYVKIHLMQNGKRLKKKKTTIKKNTLNPYYNESFSFEVPFEQIQKVQVVVTVLDYDKIGKNDAIGKVFVGYNSTGAELRHWSDMLANPRRPIAQWHTLQVEEEVDAMLCVKK
modifications: Sulfo-Cy5 maleimide label (labeling efficiency 34.5%-42%)
B2: C2AB_F349A (A418C), Cy5-labeled (domain or fragment)
chain: B1 chain with F209A
modifications: Sulfo-Cy5 maleimide label (labeling efficiency 34.5%-42%)

Biological target: the molecule itself
Assay: single-molecule fluorescence photobleaching step counting; 40 pM Cy5-labeled C2AB incubated 30 min at room temperature on a DiI-labeled supported lipid bilayer (15% DOPS, with or without 1% PIP2), no Ca2+; unbound protein removed; photobleaching steps per fluorescent spot fitted to a Poisson distribution and corrected for unlabeled fragments; printed numbers are with 1% PIP2

Protein | stoichiometry N [molecules]
B1 | 6.85
B2 | 3.03
